Test results: patent US20200239541A1 (XYPHOS BIOSCIENCES, published 2020)
Residue numbers refer to the chain shown, from its start.

Experiments:
Fc-eNKG2D5 (Y152A/Y199F) [1] = target: T1, Fc-eNKG2D5 (Y152A/Y199F) (human); test: ELISA, Fc-eNKG2D coated, MicAbody titrated from 300 nM
T1 construct: also called eNKG2D5 A|F; Fc-NKG2D.AF
Method: (§1) The binding affinities of α1-α2 variants to the extracellular domains of natural (wild-type) NKG2D and non-natural eNKG2D proteins were analyzed using a plate-based ELISA method. Each of the SEC fractionated natural Fc-NKG2D and non-natural Fc-eNKG2D fusions were coated overnight at 4° C. onto separate wells of Nunc Maxisorp 96 well plates (Thermo Fisher Scientific, Waltham, Mass.) using a coating concentration of 1 μg/mL in phosphate-buffered saline (PBS). The plates were washed three times in PBS/0.05% Tween-20 (PBS-T) at 20-22° C., and blocked with 0.5% bovine serum albumin in PBS (PBS-B) for 2 hours at 20-22° C. MicAbodies were titrated against the plate-bound natural or non-natural Fc-NKG2D fusions for 60 minutes at 20-22° C. in PBS/0.5% bovine serum albumin (BSA)/0.05% Tween-20 (PBS-BT), washed 3 times with PBS-T at 20-22° C., and the bound bispecific proteins detected using an HRP-conjugated anti-human kappa in PBS-BT (Abcam, Cambridge Mass.) and developed with 1-Step™ Ultra TMB ELISA Substrate Solution (Thermo Fisher Scientific, Waltham, Mass.).

Fc-eNKG2D6 (Y152L/Y199F) = target: T2, Fc-eNKG2D6 (Y152L/Y199F) (human); test: as above
T2 construct: also called eNKG2D6 L|F
Method: as §1

Fc-eNKG2D7 (Y152S/Y199F) = target: T3, Fc-eNKG2D7 (Y152S/Y199F) (human); test: as above
T3 construct: also called eNKG2D7 S|F
Method: as §1

[2] = target: T4, Fc-eNKG2D12 (Y152D/Y199D) (human); test: as above
T4 construct: also called eNKG2D12 D|D
Method: as §1

[3] = target: T5, Fc-eNKG2D13 (Y152E/Y199E) (human); test: as above
T5 construct: also called eNKG2D13 E|E
Method: as §1

Fc-eNKG2D8 (Y152T/Y199F) = target: T6, Fc-eNKG2D8 (Y152T/Y199F) (human); test: as above
T6 construct: also called eNKG2D8 T|F
Method: as §1

Fc-eNKG2D9 (Y152V/Y199F) = target: T7, Fc-eNKG2D9 (Y152V/Y199F) (human); test: as above
T7 construct: also called eNKG2D9 V|F
Method: as §1

Fc-eNKG2D2 (Y152S) = target: T8, Fc-eNKG2D2 (Y152S) (human); test: ELISA, Fc-NKG2D coated, MicAbody titrated from 300 nM
T8 construct: also called eNKG2D2 S|Y; not shown: human IgG1 Fc (without Fab domains)
Method: as §1

Fc-eNKG2D4 (Y152V) = target: T9, Fc-eNKG2D4 (Y152V) (human); test: as above
T9 construct: also called eNKG2D4 V|Y
Method: as §1

Fc-eNKG2D14 (Y152L) = target: T10, Fc-eNKG2D14 (Y152L) (human); test: as above
T10 construct: also called eNKG2D14 L|Y
Method: as §1

Fc-NKG2D.wt [4] = target: T11, Fc-NKG2D.wt (human); test: as above
T11 construct: also called NKG2D.wt Y|Y; natural Fc-NKG2D
Method: as §1

Fc-eNKG2D3 (Y152T) = target: T12, Fc-eNKG2D3 (Y152T) (human); test: as above
T12 construct: also called eNKG2D3 T|Y
Method: as §1

Fc-NKG2D.wt [5] = target: T11, Fc-NKG2D.wt; test: ELISA (called Kd in the text)
Method: as §1

Fc-NKG2D.Y152A [6] = target: T13, Fc-NKG2D.Y152A (human); test: ELISA and Octet, bispecific antibody fused format
T13 construct: also called eNKG2D A|Y; Fc-NKG2D.YA

Fc-eNKG2D5 (Y152A/Y199F) [7] = target: T1, Fc-eNKG2D5 (Y152A/Y199F); test: ELISA of rituximab-MicAbodies
Fc-NKG2D.wt [8] = target: T11, Fc-NKG2D.wt; test: ELISA of rituximab-MicAbodies
Fc-NKG2D.Y152A [9] = target: T13, Fc-NKG2D.Y152A; test: ELISA of rituximab-MicAbodies
[10] = target: T14, WT α1-α2 domain (soluble wild-type MICA, titrated) (UniProt Q29983 24-204); test: BLI (Octet), Kd = kOFF/kON
T14 construct: domain: α1-α2; also called WT MICA; WT NKG2DL
T14 sequence (looked up): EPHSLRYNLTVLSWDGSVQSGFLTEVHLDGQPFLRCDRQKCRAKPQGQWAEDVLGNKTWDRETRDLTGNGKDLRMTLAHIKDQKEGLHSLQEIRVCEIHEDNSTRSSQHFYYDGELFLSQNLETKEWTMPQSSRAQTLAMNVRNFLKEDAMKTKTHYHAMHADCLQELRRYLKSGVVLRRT

[11] = target: T14, WT α1-α2 domain (soluble wild-type …); test: BLI (Octet), biotinylated human NKG2D coated, 100 nM analyte
[12] = target: T15, His-avitag natural NKG2D ectodomain, biotinylated (human); test: BLI (Octet), biotinylated natural NKG2D ectodomain coated, 100 nM fusion
T15 construct: also called natural form of the ectodomain of NKG2D
T15 chain: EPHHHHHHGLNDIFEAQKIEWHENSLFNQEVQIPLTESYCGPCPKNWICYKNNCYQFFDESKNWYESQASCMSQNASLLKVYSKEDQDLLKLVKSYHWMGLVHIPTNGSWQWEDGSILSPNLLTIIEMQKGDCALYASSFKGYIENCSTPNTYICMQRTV
Method: In order to characterize and compare the kinetic binding parameters of the natural and 8 variant α1-α2 domains to natural NKG2D, we measured their binding to surface coated biotinylated natural NKG2D ectodomain using biolayer interferometry (Octet) at 100 nM of each of the α1-α2-α3-Fv fusion proteins.

T1 sequence (chain, as listed by the source Y152A Y199F Y152A Y199F limits assumed): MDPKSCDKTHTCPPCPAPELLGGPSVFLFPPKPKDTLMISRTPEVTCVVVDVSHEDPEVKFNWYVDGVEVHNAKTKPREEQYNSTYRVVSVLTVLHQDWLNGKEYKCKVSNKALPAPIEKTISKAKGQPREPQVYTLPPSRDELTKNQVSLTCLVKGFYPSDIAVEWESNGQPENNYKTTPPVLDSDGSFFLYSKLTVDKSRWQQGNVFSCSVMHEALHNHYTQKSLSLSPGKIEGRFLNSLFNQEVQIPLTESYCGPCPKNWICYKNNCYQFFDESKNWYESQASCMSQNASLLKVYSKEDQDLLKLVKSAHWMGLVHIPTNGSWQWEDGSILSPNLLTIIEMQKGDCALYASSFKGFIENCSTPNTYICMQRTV
T2 sequence (chain, as listed by the source Y152L Y199F Y152L Y199F limits assumed): as the sequence (chain, as listed by the source Y152A Y199F Y152A Y199F limits assumed) above, with A312L counted along it
T4 sequence (chain, as listed by the source Y152D Y199D Y152D Y199D limits assumed): as the sequence (chain, as listed by the source Y152A Y199F Y152A Y199F limits assumed) above, with A312D, F359D counted along it
T5 sequence (chain, as listed by the source Y152E Y199E Y152E Y199E limits assumed): as the sequence (chain, as listed by the source Y152A Y199F Y152A Y199F limits assumed) above, with A312E, F359E counted along it
T7 sequence (chain, as listed by the source Y152V Y199F Y152V Y199F limits assumed): as the sequence (chain, as listed by the source Y152A Y199F Y152A Y199F limits assumed) above, with A312V counted along it
T3 sequence (chain, as listed by the source Y152S Y199F Y152S Y199F limits assumed): as the sequence (chain, as listed by the source Y152A Y199F Y152A Y199F limits assumed) above, with A312S counted along it
T6 sequence (chain, as listed by the source Y152T Y199F Y152T Y199F limits assumed): as the sequence (chain, as listed by the source Y152A Y199F Y152A Y199F limits assumed) above, with A312T counted along it

B1: ULBP2.wt rituximab-MicAbody (bispecific antibody, human IgG1, kappa)
heavy: not shown
light: QIVLSQSPAILSASPGEKVTMTCRASSSVSYIHWFQQKPGSSPKPWIYATSNLASGVPVRFSGSGSGTSYSLTISRVEAEDAATYYCQQWTSNPPTFGGGTKLEIKRTVAAPSVFIFPPSDEQLKSGTASVVCLLNNFYPREAKVQWKVDNALQSGNSQESVTEQDSKDSTYSLSSTLTLSKADYEKHKVYACEVTHQGLSSPVTKSFNRGECAPTSSSGGGGSEPHSLSYDITVIPKFRPGPRWCAVQGQVDEKTFLHYDCGNKTVTPVSPLGKKLNVTTAWKAQNPVLREVVDILTEQLRDIQLENYTPKEPLTLQARMSCEQKAEGHSSGSWQFSFDGQIFLLFDSEKRMWTTVHPGARKMKEKWENDKVVAMSFHYFSMGDCIGWLEDFLMGMDSTLEPS
notes: also called ULBP2 MicAbody
Q: Does B1 bind (Fc-eNKG2D5 (Y152A/Y199F) [1])?
A: no binding (tested: 300 nM)

Q: Does B1 bind (Fc-eNKG2D6 (Y152L/Y199F))?
A: no binding (tested: 300 nM)

Q: Does B1 bind (Fc-eNKG2D7 (Y152S/Y199F))?
A: no binding (tested: 300 nM)

Q: Does B1 bind [2]?
A: no binding (tested: 300 nM)

Q: Does B1 bind [3]?
A: no binding (tested: 300 nM)

Q: Does B1 bind (Fc-eNKG2D8 (Y152T/Y199F))?
A: no binding (tested: 300 nM)

Q: Does B1 bind (Fc-eNKG2D9 (Y152V/Y199F))?
A: no binding (tested: 300 nM)

Q: And the EC50 (Fc-eNKG2D2 (Y152S))?
A: 34.8 nM

Q: And the EC50 (Fc-eNKG2D4 (Y152V))?
A: 35.8 nM

Q: And the EC50 (Fc-eNKG2D14 (Y152L))?
A: 87.6 nM

Q: And the EC50 (Fc-NKG2D.wt [4])?
A: 1.41 nM

Q: What about the EC50 (Fc-eNKG2D3 (Y152T)) of the same binder?
A: 31.1 nM

Q: And the EC50 (Fc-NKG2D.wt [5])?
A: 1.4 nM

B2: rituximab-ULBP2.S3 MicAbody (bispecific antibody, human IgG1, kappa)
heavy: not shown
light: B1 light with R302W, M376T, S377K, F378L, H379Y, Y380L, F381W
notes: also called ULBP2.S3 as a MicAbody
Q: What does the source list for B2?
A: binding result (Fc-NKG2D.Y152A [6]): binds; binding result (Fc-eNKG2D5 (Y152A/Y199F) [7]): no binding; binding result (Fc-NKG2D.wt [8]): no binding

B3: rituximab-ULBP2.R MicAbody (bispecific antibody, human IgG1, kappa)
heavy: not shown
light: QIVLSQSPAILSASPGEKVTMTCRASSSVSYIHWFQQKPGSSPKPWIYATSNLASGVPVRFSGSGSGTSYSLTISRVEAEDAATYYCQQWTSNPPTFGGGTKLEIKTVAAPSVFIFPPSDEQLKSGTASVVCLLNNFYPREAKVQWKVDNALQSGNSQESVTEQDSKDSTYSLSSTLTLSKADYEKHKVYACEVTHQGLSSPVTKSFNRGECAPTSSSGGGGSEPHSLSYDITVIPKFRPGPRWCAVQGQVDEKTFLHYDCGNKTVTPVSPLGKKLNVTTAWKAQNPVLREVVDILTEQLWDIQLENYTPKEPLTLQARMSCEQKAEGHSSGSWQFSFDGQIFLLFDSEKRMWTTVHPGARKMKEKWENDKVVATLLWGWSMGDCIGWLEDFLMGMDSTLEPS
notes: also called rituximab-MicAbody with ULBP2 variant R
Q: Does B3 bind (Fc-NKG2D.Y152A [9])?
A: no binding

B4: biotinylated human NKG2D (Example 1) (receptor, UniProt P26718 78-216, looked up)
chain: FLNSLFNQEVQIPLTESYCGPCPKNWICYKNNCYQFFDESKNWYESQASCMSQNASLLKVYSKEDQDLLKLVKSYHWMGLVHIPTNGSWQWEDGSILSPNLLTIIEMQKGDCALYASSFKGYIENCSTPNTYICMQRTV
notes: also called recombinant biotinylated NKG2D
Q: B4 was tested. Which Kd [10] did it give?
A: 13.8 nM

Q: What about the koff [11] of the same binder?
A: 0.0018 s⁻¹

Q: And the kon [11]?
A: 130000 M⁻¹ s⁻¹

B5: DSM25 α1-α2-α3-Fv fusion (SEQ ID NO 43) (ligand)
chain: EPHSLRYNLTVLSWDGSVQSGFLTEVHLDGQPFLRCDRQKCRAKPQGQWAEDVLGNKTWDRETRDLTGWGKDLRMTLAHIKDQKEGLHSLQEIRVCEIHEDNSTRSSQHFYYDGELFLSQNLETLEWTMPQSSRAQTLAMNVRNFLKEDAMETDTHYHAMRADCLSELRRYLKSGVVLRRTVPPMVQVTRSEASGGSGDRVTITCRASQDVSTAVAWYQQKPGKAPKLLIYSASFLYSGVPSRFSGSGSGTDFTLTISSLQPEDFATYYCQQSYTTPPTFGQGTKVEIKGGSSRSSSSGGGGSGGGGEVQLVESGGGLVQPGGSLRLSCAASGFTFTSTGISWVRQAPGKGLEWVGRIYPTNGSTNYADSVKGRFTISADTSKNTAYLQMNSLRAEDTAVYYCARTYGIYDLYVDYTEYVMDYWGQGTLVTVSSGGSSRSSSSGGGGSGGGGDIQMTQSPSSLSASGGSGQITVTCRASGFYPWNITLSWRQDGVSLSHDTQQWGDVLPDGQGTYQTWVATRISQGEEQRFTCYMEHSGQHSTHPVPSGKGSHHHHHH
Q: Does B5 bind [12]?
A: binds
